Assay [1] concerns the target T1, hGITR-EGFP on HEK293 cells (human, UniProt Q9Y5U5 26-241).
T1 construct: EGFP fusion expressed on transfected HEK293 cells; also called human GITR
T1 sequence (looked up): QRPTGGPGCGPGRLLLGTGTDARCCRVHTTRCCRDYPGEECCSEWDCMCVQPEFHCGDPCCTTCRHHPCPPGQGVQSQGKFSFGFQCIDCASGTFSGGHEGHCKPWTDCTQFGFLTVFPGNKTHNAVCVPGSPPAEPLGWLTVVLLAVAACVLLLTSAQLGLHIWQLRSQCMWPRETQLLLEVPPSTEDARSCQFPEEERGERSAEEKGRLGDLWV
Briefly: FACS on hGITR-EGFP HEK293 cells. The method, then:
(§1) The hCD137-EGFP, hOX40-EGFP and hGITR-EGFP cells as described in Example 1 were washed twice in PBS, 10 μg/ml of each chimeric antibody as prepared in Example 3 (m2E7, m2B8, m4H3, m3E7, m1A8, m4G1, m2G3, m2F11 and m3B8) was added to each type of cells and incubated at 4° C. for 30 min. Then it was washed twice with PBS, anti-human Ig-APC (Jackson ImmunoResearch Laboratories, Cat #109-135-098) was added and were incubated at 4° C. for 30 min, washed twice with PBS and resuspended in 300 μl PBS. In FIG. 2, NC represents negative control (PBS), a-hlg-APC represents secondary antibody only, the other panels represent results obtained with each of the corresponding clone, respectively.

Assay [2] has as its target T2, hOX40-EGFP on HEK293 cells (human, UniProt P43489 29-277).
T2 construct: EGFP fusion expressed on transfected HEK293 cells; also called human OX40
T2 sequence (looked up): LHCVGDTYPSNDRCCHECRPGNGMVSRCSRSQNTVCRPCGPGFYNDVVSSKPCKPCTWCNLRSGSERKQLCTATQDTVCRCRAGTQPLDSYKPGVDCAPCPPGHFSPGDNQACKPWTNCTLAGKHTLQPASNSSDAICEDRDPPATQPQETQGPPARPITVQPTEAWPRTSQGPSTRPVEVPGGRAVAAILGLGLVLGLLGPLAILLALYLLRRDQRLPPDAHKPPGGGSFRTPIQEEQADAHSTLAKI
In words: FACS on hOX40-EGFP HEK293 cells. The method, then:
as §1

In assay [3] the target is T3, hCD137-EGFP on HEK293 cells (human, UniProt Q07011 24-255).
T3 construct: EGFP fusion expressed on transfected HEK293 cells; also called human CD137
In words: FACS on hCD137-EGFP HEK293 cells. As for the experimental part: as §1

The target in assay [4] is T4, hCD27-EGFP on HEK293 cells (human, UniProt P26842 20-260).
T4 construct: EGFP fusion expressed on transfected HEK293 cells; also called CD27-EGFP cells; cell surface CD27
T4 sequence (looked up): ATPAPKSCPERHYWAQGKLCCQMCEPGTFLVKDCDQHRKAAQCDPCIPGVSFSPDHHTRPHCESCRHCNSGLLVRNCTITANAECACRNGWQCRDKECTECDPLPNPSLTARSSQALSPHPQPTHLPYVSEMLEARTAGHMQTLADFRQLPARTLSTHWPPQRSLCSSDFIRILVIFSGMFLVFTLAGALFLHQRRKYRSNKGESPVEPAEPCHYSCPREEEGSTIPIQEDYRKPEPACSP
Briefly: FACS on CD27-EGFP HEK293 cells, 10 µg/ml antibody. As for the experimental part:
5×10⁵ CD27-EGFP cells prepared in Example 1 were washed twice in PBS, 10 μg/ml of each chimeric antibody prepared in Example 3 (m2E7, m2B8, m4H3, m3E7, m1A8, m4G1, m2G3, m2F11 and m3B8) was added to the cells and incubated at 4° C. for 30 min. Then it was washed twice in PBS, anti-human Ig-APC (Jackson ImmunoResearch Laboratories, Cat #109-135-098) was added, incubated at 4° C. for 30 min, washed twice with PBS and resuspended in 300 μl PBS. In FIG. 1, NC represents negative control (PBS), a-hlg-APC represents secondary antibody only, the other panels represent results obtained with each of the corresponding clone, respectively.

Assay [5] has as its target T5, hCD27-muFc (human; mouse, UniProt P26842 20-192).
T5 construct: range 1-192; Secreted from HEK293, Protein A purified; not shown: mouse IgG1-Fc (muFc), residues 98 to 324 of UniProt P01868
T5 sequence (looked up): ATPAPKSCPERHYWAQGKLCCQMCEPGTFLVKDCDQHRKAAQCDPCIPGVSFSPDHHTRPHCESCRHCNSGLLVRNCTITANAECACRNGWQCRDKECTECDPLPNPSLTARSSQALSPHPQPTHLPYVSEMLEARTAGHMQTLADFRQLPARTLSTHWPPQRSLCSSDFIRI
Briefly: ELISA, plate coated with hCD27-muFc, Test 1. The method, then: (§2) The ELISA plate was coated with 2 μg/ml hCD27-muFc, 100 μl/well and incubated at 4° C. overnight. Then it was washed once with 10 mM, pH 7.4 PBS/Tween (0.05%), blocked with PBST containing 5% skimmed milk powder and incubated at 37° C. for 2 h. After washing the plate for 4 times, the humanized antibodies were added and incubated at 37° C. for 40 min, then it was washed for 4 times. Anti-human IgG-HRP-conjugated secondary antibody (Sigma, Cat #A0170-1M) was added and incubated at 37° C. for 40 min. After washing, the plate was developed with TMB substrate and spectrophotometric analysis was performed at OD₄₅₀. In FIGS. 5A-5B, each curve represents the binding result obtained for one of the humanized antibodies. From the results, it can be seen that all these humanized antibodies could bind to human CD27.
For orientation: ELISA stands for enzyme-linked immunosorbent assay.

Assay [6] deals with T5, hCD27-muFc. In words: ELISA, plate coated with hCD27-muFc, Test 2. As for the experimental part: as §2
Assay [7] deals with T5, hCD27-muFc. Briefly: BLI (Octet K2), antibody on Protein A biosensor, hCD27-muFc in solution. As for the experimental part:
Using the BLI method, each humanized antibody was immobilized on a Protein A biosensor at a concentration of 10 μg/ml, while hCD27-muFc was subjected to 2-fold serial dilution, starting from 100 nM, to obtain 5 gradient dilutions for each antibody. The reaction plate was placed on the Octet K2 instrument. The parameters were set to Baseline 70 s, Association 80 s, Dissociation 300 s, Baseline 260 s, Loading 40 s, and Custom 5 s.
For orientation: Biolayer interferometry detects binding as a change in optical thickness at a sensor tip.

Assay [8] has as its target T2, hOX40-EGFP on HEK293 cells. Briefly: FACS dot plot on OX40-EGFP HEK293 cells, anti-human Ig-APC secondary. As for the experimental part: as §1
In assay [9] the target is T3, hCD137-EGFP on HEK293 cells. Briefly: FACS dot plot on CD137-EGFP HEK293 cells, anti-human Ig-APC secondary. The method, then: as §1
For assay [10], the target named is T4, hCD27-EGFP on HEK293 cells. Briefly: FACS titration on CD27-EGFP HEK293 cells, 8 three-fold dilutions from 20 µg/ml, anti-human Ig-APC secondary, MFI; table drawn under the plot, unit from the x axis; no upper plateau reached. As for the experimental part:
Based on the above results of ELISA, 7 humanized antibodies were selected to examine their affinities to cell surface CD27. Briefly, 5×10⁵ CD27-EGFP cells prepared in Example 1 were washed twice in PBS, each of the humanized antibodies (d16647, d12996, d9419, 14822, 9424, d14822, d12674) was added. The antibodies were subjected to 3-fold serial dilution, starting from 20 μg/ml, to obtain 8 gradient dilutions for each antibody. The antibodies and the cells were incubated at 4° C. for 30 min. Then, it was washed twice with PBS, anti-human Ig-APC (Jackson ImmunoResearch Laboratories, Cat #109-135-098) was added, and incubated at 4° C. for 30 min, washed twice with PBS and resuspended in 300 μl PBS. Flow cytometry was then performed, and the results are shown in FIG. 6. m2F11 was used as a control.

The values that follow come from patent US20210179726A1 (DINGFU BIOTARGET, published 2021).

T3 sequence (Q07011 24-255): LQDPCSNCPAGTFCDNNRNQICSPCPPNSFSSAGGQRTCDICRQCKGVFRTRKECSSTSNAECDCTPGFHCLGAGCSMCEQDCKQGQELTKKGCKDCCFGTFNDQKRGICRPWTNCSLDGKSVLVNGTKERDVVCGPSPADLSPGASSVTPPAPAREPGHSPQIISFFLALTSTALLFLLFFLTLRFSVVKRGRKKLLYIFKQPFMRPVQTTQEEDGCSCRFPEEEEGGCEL

B1: m3E7 (antibody, human IgG1, V domains shown)
VH: QIQLVQSGPELKKPGETVKISCKASGYTFTTYGMSWVKQAPGKGLHWMGWINTHSGAPTYVDDFKGRFAFSLETSASTAFLQINNLINEDTATYFCAREGDALDYWGQGTSVTVSS
VL: DIVMTQTTAIMSAFPGEKVTMTCSASSSVSYMHWYQQKSGTSPKRWIYDTSKLASGVPVRFSGSGSGTSYSLTISNMEAEDAATYYCQQWSRNPPFTFGAGTKLELK
notes: Chimeric antibody: mouse VH/VL on human IgG1 / human kappa constant regions; also called clone 3E7; not shown: human IgG1 constant region, UniProt P01857
B1: the binding result is “no binding (tested: 10 µg/ml)” in assay [1], “no binding (tested: 10 µg/ml)” in assay [2], “no binding (tested: 10 µg/ml)” in assay [3] and “binds” in assay [4].

B2: m2F11 (antibody, human IgG1, V domains shown)
VH: EVQLQESGGDLVKPGGSLKLSCAASGFTFSSYAMSWVRQTPEKRLEWVAIIGDGDTYTYYPDSVKGRFTVSRDNAKNNLYLQMSHLKSEDTAMYYCVRTRGGPFDYWGQGTTLTVSS
VL: DIVLTQTPALMSASPGEKVTMTCSASSSVGSMHWYQQKSGTSPKRWIYDTSKLASGVPARFSGSGSGTSYSLTISSMEAEDAATYYCQQWSSIPPTFGAGTTLELK
notes: Chimeric antibody: mouse VH/VL on human IgG1 / human kappa constant regions; Parent of the humanized antibodies; also called clone 2F11; not shown: human IgG1 constant region, UniProt P01857
By EC50 is commonly meant the midpoint of the concentration-response curve. A word on the Kd: it is the equilibrium constant for the complex coming apart. A lower Kd goes with a tighter complex. The koff is a measure of how fast the partners let go of each other. Low readings indicate a long-lived complex, high ones a short-lived complex. By kon is commonly meant the rate constant with which the complex forms. Read a high kon as faster complex formation. As to B2, the binding result in assay [1], in assay [8] and in assay [9] was “no binding (tested: 10 µg/ml)” throughout. Besides, the EC50 with hCD27-muFc [5] is 0.0315 µg/mL; with hCD27-muFc [6], 0.0279 µg/mL. Further, the Kd in the assay with hCD27-muFc [7] was found to be 0.835 nM. For the same molecule, the koff with hCD27-muFc [7] was 0.000108 s⁻¹. Further, in the assay with hCD27-muFc [7], the kon is 130000 M⁻¹ s⁻¹. The LogEC50 in assay [10] was 0.417 Log10(ug/ml).
